# Reference: US20240400701A1 (LANOVA MEDICINES DEVELOPMENT, published 2024)
# Substitutions are numbered along the chain they refer to.
# B1: 31D9B3 H3L4 hIgG1 (antibody, V domains shown)
# VH: QVQLVQSGAEVKVPGASVKMSCKASGYTFTDYWVSWVRQSPGQGLEWIGEIYPKNGVSNFNEKFKGRVTLTVDKSTSTAYMELRSLRSDDTAVYYCTRQRDYWGQGVLVTVSS
# VL: DVVLTQSPLSLPVTLGQPASISCRSSQSLEYGDGYTYLEWYLQRPGQSPQLLIYGVSNRFSGVPDRFIGSGSGTDFTLKISRVEPEDVGVYYCFQATHDPNTFGAGTKLEIK
# notes: Humanized, human IgG1; also called 31D9B3 H3L4 hlgG1
# B2: 31D9B3 H4L2 hIgG1 (antibody, V domains shown)
# VH: B1 VH with K12V, V13K, R38K, R67K, V68A, S85R, Y94F
# VL: B1 VL with L4M, Q50R, I68S, P85A, A105Q
# notes: Humanized, human IgG1; also called 31D9B3 H4L2 hlgG1
# B3: 31D9B3 H4L1 hIgG1 (antibody, V domains shown)
# VH: B1 VH with K12V, V13K, R38K, R67K, V68A, S85R, Y94F
# VL: B1 VL with L4M, Y41F, L42Q, Q50R, L51R, I68S, P85A, A105Q
# notes: Humanized, human IgG1; also called 31D9B3 H4L1 hlgG1
# B4: 31D9B3 H4L3 hIgG1 (antibody, V domains shown)
# VH: B1 VH with K12V, V13K, R38K, R67K, V68A, S85R, Y94F
# VL: B1 VL with L4M, Q50R, P85A
# notes: Humanized, human IgG1; also called 31D9B3 H4L3 hlgG1
# B5: 31D9B3 H3L1 hIgG1 (antibody, V domains shown)
# VH: B1 VH
# VL: B1 VL with L4M, Y41F, L42Q, Q50R, L51R, I68S, P85A, A105Q
# notes: Humanized, human IgG1; also called 31D9B3 H3L1 hlgG1
# B6: 31D9B3 H3L2 hIgG1 (antibody, V domains shown)
# VH: B1 VH
# VL: B1 VL with L4M, Q50R, I68S, P85A, A105Q
# notes: Humanized, human IgG1; also called 31D9B3 H3L2 hlgG1
# B7: 31D9B3 H3L3 hIgG1 (antibody, V domains shown)
# VH: B1 VH
# VL: B1 VL with L4M, Q50R, P85A
# notes: Humanized, human IgG1; also called 31D9B3 H3L3 hlgG1
# B8: 31D9B3 H1L2 hIgG1 (antibody, V domains shown)
# VH: B1 VH with V13K, M20V, S40A, I48M, L70M, V72T, K74T, T97A, V107T
# VL: B1 VL with L4M, Q50R, I68S, P85A, A105Q
# notes: Humanized, human IgG1; also called 31D9B3 H1L2 hlgG1; 31D9B3 VH1-VL2 hlgG1
# B9: 31D9B3 H1L1 hIgG1 (antibody, V domains shown)
# VH: B1 VH with V13K, M20V, S40A, I48M, L70M, V72T, K74T, T97A, V107T
# VL: B1 VL with L4M, Y41F, L42Q, Q50R, L51R, I68S, P85A, A105Q
# notes: Humanized, human IgG1; also called 31D9B3 H1L1 hlgG1
# B10: 31D9B3 H1L3 hIgG1 (antibody, V domains shown)
# VH: B1 VH with V13K, M20V, S40A, I48M, L70M, V72T, K74T, T97A, V107T
# VL: B1 VL with L4M, Q50R, P85A
# notes: Humanized, human IgG1; also called 31D9B3 H1L3 hlgG1
# B11: 31D9B3 H2L4 hIgG1 (antibody, V domains shown)
# VH: B1 VH with K12V, V13K, M20V, S40A, L70M, K74T, V107T
# VL: B1 VL
# notes: Humanized, human IgG1; also called 31D9B3 H2L4 hlgG1
# B12: 31D9B3 H2L2 hIgG1 (antibody, V domains shown)
# VH: B1 VH with K12V, V13K, M20V, S40A, L70M, K74T, V107T
# VL: B1 VL with L4M, Q50R, I68S, P85A, A105Q
# notes: Humanized, human IgG1; also called 31D9B3 H2L2 hlgG1
# B13: 31D9B3 H2L1 hIgG1 (antibody, V domains shown)
# VH: B1 VH with K12V, V13K, M20V, S40A, L70M, K74T, V107T
# VL: B1 VL with L4M, Y41F, L42Q, Q50R, L51R, I68S, P85A, A105Q
# notes: Humanized, human IgG1; also called 31D9B3 H2L1 hlgG1
# B14: 31D9B3 H2L3 hIgG1 (antibody, V domains shown)
# VH: B1 VH with K12V, V13K, M20V, S40A, L70M, K74T, V107T
# VL: B1 VL with L4M, Q50R, P85A
# notes: Humanized, human IgG1; also called 31D9B3 H2L3 hlgG1
# B15: 31D9B3 H1L4 hIgG1 (antibody, V domains shown)
# VH: B1 VH with V13K, M20V, S40A, I48M, L70M, V72T, K74T, T97A, V107T
# VL: B1 VL
# notes: Humanized, human IgG1; also called 31D9B3 H1L4 hlgG1
# Molecular target: T1, human AMHRII (anti-Mullerian hormone receptor type 2) (human, UniProt Q16671 18-573)
# T1 construct: whole, on cells; also called AMHR2; human AMHR2
# T1 sequence (looked up): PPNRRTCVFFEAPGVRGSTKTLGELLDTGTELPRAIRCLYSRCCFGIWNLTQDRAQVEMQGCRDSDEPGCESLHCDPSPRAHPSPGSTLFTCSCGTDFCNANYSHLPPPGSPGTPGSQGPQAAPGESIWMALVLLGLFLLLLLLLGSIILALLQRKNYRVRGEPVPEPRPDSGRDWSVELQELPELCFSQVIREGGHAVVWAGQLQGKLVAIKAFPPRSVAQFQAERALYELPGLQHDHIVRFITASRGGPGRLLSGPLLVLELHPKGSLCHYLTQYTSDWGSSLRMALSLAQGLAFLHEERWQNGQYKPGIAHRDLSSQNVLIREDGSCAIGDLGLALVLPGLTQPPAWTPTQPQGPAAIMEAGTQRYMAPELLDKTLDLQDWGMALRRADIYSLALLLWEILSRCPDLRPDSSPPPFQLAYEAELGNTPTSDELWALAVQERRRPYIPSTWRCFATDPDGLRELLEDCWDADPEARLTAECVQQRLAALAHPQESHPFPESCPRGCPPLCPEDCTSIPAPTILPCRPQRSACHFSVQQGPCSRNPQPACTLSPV
# Test: FACS on CHO-K1 cells over-expressing human AMHR2
# Protocol: (§1) CHO-K1 cells over-expressed AMHR2 were harvested from flasks. 100 μl of 1×10⁶ cells/ml of cells were incubated with the humanized antibodies in 3-fold serial dilutions starting from 300 nM to 0.001 nM for 30 minutes on ice. After being washed with 200 μl of FACS buffer twice, cells were incubated with secondary antibody for 30 minutes on ice. Cells were washed with 200 μl of FACS buffer twice and analyzed by FACS.
Binder,EC50,Top (MFI)
B1,1.01 nM,36400 MFI
B2,0.84 nM,36200 MFI
B3,2.18 nM,16100 MFI
B4,0.83 nM,36000 MFI
B5,3.01 nM,19600 MFI
B6,1.05 nM,37900 MFI
B7,1.3 nM,38000 MFI

# Molecular target: T1, human AMHRII (anti-Mullerian hormone …)
# Test: FACS on CHO-K1 cells over-expressing human AMHR2
# Remark: another data set of the same source
# Protocol: as §1
Binder,EC50,Top (MFI)
B8,1.06 nM,26700 MFI

# Molecular target: T1, human AMHRII (anti-Mullerian hormone …)
# Test: FACS on CHO-K1 cells over-expressing human AMHR2
# Remark: another data set of the same source
# Protocol: as §1
Binder,EC50,Top (MFI)
B8,1.49 nM,36200 MFI
B9,89.1 nM,8940 MFI
B10,1.36 nM,34700 MFI
B11,1.67 nM,39200 MFI
B12,1.58 nM,37900 MFI
B13,22.5 nM,19100 MFI
B14,1.28 nM,36700 MFI
B15,1.42 nM,34100 MFI

# Molecular target: T1, human AMHRII (anti-Mullerian hormone …)
# Test: FACS on Rko cells over-expressing human AMHR2
# Protocol: as §1, with “Rko” for “CHO-K1”, “over-expressing” for “over-expressed”, “primary PTM” for “the humanized”
Binder,EC50,Top (MFI)
B8,1.21 nM,18300 MFI
